Four substances from publication PMC9613477 can be followed below.

Holding throughout (assay): crystal structure; disulfide cross-linked CA hexamers, hanging- or sitting-drop vapour diffusion, data at 100 K, molecular replacement with PDB 3H47
Assay [1] has as its target HIV-1(M-group) CA Q50Y hexamer (A14C, E45C, Q50Y, W184A, M185A) (HIV-1 group M).
For assay [2], the target named is HIV-1(O-group) CA hexamer (A14C, E45C, W185A, M186A) (HIV-1 group O).
For assay [3], the target named is SIVcpz CA hexamer (P14C, E45C, W184A, M185A) (SIVcpzPtt (SIV of central chimpanzees)).
Assay [4] addresses SIVmac CA hexamer (P13C, E44C, W182A, M183A) (SIVmac (SIV from macaques)).

For “HIV-1(M-group) CA Q50Y hexamer (A14C, E45C, Q50Y, W184A, M185A) (natural protein)”, in assay [1], the stoichiometry N is 6.
Regarding “HIV-1(O-group) CA hexamer (A14C, E45C, W185A, M186A) (natural protein)”, the stoichiometry N in assay [2] amounted to 6.
In assay [3], “SIVcpz CA hexamer (P14C, E45C, W184A, M185A) (natural protein)” yielded a stoichiometry N of 6.
“SIVmac CA hexamer (P13C, E44C, W182A, M183A) (natural protein)” returned a stoichiometry N in assay [4] of 6.
